Data taken from US20220306757A1 (HANGZHOU SUMGEN BIOTECH, published 2022).
Each block holds one binder with its values, some of them ahead of it.

Tests used:
[1] = biological target: T1, BCMA on the surface of human myeloma U266 cells (human, UniProt Q02223 1-184); assay: cell-based or functional assay
T1 sequence (looked up): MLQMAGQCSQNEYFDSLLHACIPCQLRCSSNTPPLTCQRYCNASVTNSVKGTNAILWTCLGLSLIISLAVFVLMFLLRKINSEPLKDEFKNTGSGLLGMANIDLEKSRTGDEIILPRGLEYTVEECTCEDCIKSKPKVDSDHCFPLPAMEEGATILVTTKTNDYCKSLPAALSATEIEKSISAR

[2] = biological target: T2, BCMA on CHOS cells stably expressing BCMA (CHOS-BCMA) (UniProt Q02223 1-184); assay: cell-based or functional assay
T2 sequence (looked up): T1 sequence (looked up)

[3] = biological target: T3, recombinant BCMA-His (ACRO Biosystems) (UniProt Q02223 1-54); assay: SPR (BIACORE), antibody captured by anti-human IgG, BCMA as mobile phase 0.15625-20 nM
T3 construct: also called target antigen BCMA; antigen BCMA; not shown: His tag
T3 sequence (looked up): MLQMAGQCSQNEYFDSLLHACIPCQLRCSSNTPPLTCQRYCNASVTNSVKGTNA
Procedure: The antibody affinity was analyzed with BIACORE biomacromolecular interaction analyzer (GE Co.). Anti-human IgG antibodies (purchased from GE) were coupled on a chip, and utilized to capture the SG1116 antibody, of which the concentration was set as 3 μg/mL, and the sampling time was 120 seconds; with the antigen BCMA as the mobile phase, a gradient of 8 concentrations (0.15625, 0.3125, 0.625, 1.25, 2.5, 5, 10, 20 nM) was used, and the binding time was 120 seconds; the dissociation time was 300 seconds; each antibody was regenerated using 3 M of magnesium chloride (purchased from GE) for a time period of 30 seconds.

[4] = biological target: T3, recombinant BCMA-His (ACRO Biosystems); assay: ELISA, BCMA-His coated at 1 µg/ml, anti-human IgG HRP detection
Procedure: ELISA strips were coated with the target antigen BCMA-His at 1 μg/ml, overnight at 4° C. After washing with PBST, 10% of fetal calf serum was added for blocking at 37° C. for 1 hour. Different concentrations of the antibody SG1116 was added to react at 37° C. for 1 hour. After washing with PBST, horseradish peroxidase-labeled goat anti-human IgG secondary antibody (Goat anti human ([…]), thermo Fisher Scientific) was added to react at 37° C. for 30 minutes. The plate was washed with PBST repeatedly for 5 times, and patted on absorbent paper so as to dry the remaining droplets as much as possible. Each well was added with […] TMB (eBioscience), placed in dark at room temperature (20±5° C.) for 1.5 min. Each well was added with 100 μl of 2N H₂SO₄ stop solution to terminate the reaction of the substrate. The OD values at 450 nm were read with a Microplate reader. The binding ability of the antibody to the target antigen BCMA was analyzed.

[5] = biological target: T1, BCMA on the surface of human myeloma …; assay: flow cytometry on U266 cells, PE anti-human IgG detection
Procedure: (§1) With human myeloma U266 cells as well as CHOS cells (CHOS-BCMA) stably expressing BCMA constructed by genetic engineering technology as representative cell models, the binding of BCMA on the cell surface to SG1116 was analyzed by flow cytometry. Cells at the logarithmic growth phase were collected, adjusted to a cell density of 5×10⁶ cells/mL, and precooled on ice. The SG1116 antibody was diluted with pre-cooled normal saline containing 2% FBS to 20 μg/ml. 100 μl of cells were taken and added into an equal volume of the above diluted SG1116 antibody, and reacted in dark at 4° C. for 30 min. At the end of the reaction, they were washed twice with pre-cooled normal saline containing 2% FBS (6000 rpm, 45 s). A secondary antibody PE mouse anti-human IgG (BD Pharmingen) was diluted with pre-cooled normal saline containing 2% FBS at a ratio of 1:5. 100 μl of cells were taken and resuspended, and reacted in dark at 4° C. for 30 min. At the end of the reaction, they were washed twice with pre-cooled normal saline containing 2% FBS (6000 rpm, 45 s). The cells were resuspended with 400 μl of 1% (v/v) paraformaldehyde. The binding ability of the antibody to the antigen on the cell surface was analyzed with a flow cytometer (BD Calibur).

[6] = biological target: T2, BCMA on CHOS cells stably expressing …; assay: flow cytometry on CHOS-BCMA cells, PE anti-human IgG detection
Procedure: as §1

[7] = biological target: T4, CD47 (Sino Biological Inc.) (UniProt Q08722 19-139); assay: ELISA, proteins coated at 1 ug/ml, HRP goat anti-human IgG, OD450
T4 construct: Specificity control
T4 sequence (Q08722 19-139 limits assumed): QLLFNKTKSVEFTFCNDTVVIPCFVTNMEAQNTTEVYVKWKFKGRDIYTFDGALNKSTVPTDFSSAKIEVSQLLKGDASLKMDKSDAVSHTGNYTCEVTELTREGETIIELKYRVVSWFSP
Procedure: (§2) ELISA strips were coated with milk (Beijing Biomed Biotech Co., Ltd.), BSA (BOVOGEN), CD19 (Sino Biological Inc.), TROP2 (Sino Biological Inc.), BCMA (ACRO Biosystems), CD47 (Sino Biological Inc.), CD38 (Sino Biological Inc.), Gas6 (R&D) and various proteins as well as AXL (ACRO Biosystems), respectively, at 1 μg/ml, overnight at 4° C. After washing with PBST, 10% of fetal calf serum was added for blocking at 37° C. for 1 hour. The antibody SG1116 was added to react at 37° C. for 1 hour. After washing with PBST, horseradish peroxidase-labeled goat anti-human IgG secondary antibody (Goat anti human (HRP), Thermo Fisher Scientific) was added to react at room temperature for 30 minutes. The plate was washed with PBST repeatedly for 5 times, and patted on absorbent paper so as to dry the remaining droplets as much as possible. Each well was added with 100 μl TMB (eBioscience, #85-00-420), placed in dark at room temperature ([…]) for 1.5 min. Each well was added with 100 μl of 2N H₂SO₄ stop solution to terminate the reaction of the substrate. The OD values at 450 nm were read with a Microplate reader. The binding ability of the antibody to protein was analyzed.

[8] = biological target: T5, CD38 (Sino Biological Inc.) (UniProt P28907 43-300); assay: as above
T5 construct: Specificity control
T5 sequence (looked up): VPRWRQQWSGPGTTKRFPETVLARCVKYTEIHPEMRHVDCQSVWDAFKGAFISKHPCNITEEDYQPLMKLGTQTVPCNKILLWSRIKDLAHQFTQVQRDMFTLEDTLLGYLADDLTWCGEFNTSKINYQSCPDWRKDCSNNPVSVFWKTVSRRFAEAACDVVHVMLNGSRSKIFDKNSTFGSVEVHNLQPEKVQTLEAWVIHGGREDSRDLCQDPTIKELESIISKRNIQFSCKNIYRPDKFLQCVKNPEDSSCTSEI
Procedure: as §2

AXL (ACRO Biosystems) = biological target: T6, AXL (ACRO Biosystems) (UniProt P30530 33-449, limits assumed); assay: as above
T6 construct: Specificity control
T6 sequence (looked up): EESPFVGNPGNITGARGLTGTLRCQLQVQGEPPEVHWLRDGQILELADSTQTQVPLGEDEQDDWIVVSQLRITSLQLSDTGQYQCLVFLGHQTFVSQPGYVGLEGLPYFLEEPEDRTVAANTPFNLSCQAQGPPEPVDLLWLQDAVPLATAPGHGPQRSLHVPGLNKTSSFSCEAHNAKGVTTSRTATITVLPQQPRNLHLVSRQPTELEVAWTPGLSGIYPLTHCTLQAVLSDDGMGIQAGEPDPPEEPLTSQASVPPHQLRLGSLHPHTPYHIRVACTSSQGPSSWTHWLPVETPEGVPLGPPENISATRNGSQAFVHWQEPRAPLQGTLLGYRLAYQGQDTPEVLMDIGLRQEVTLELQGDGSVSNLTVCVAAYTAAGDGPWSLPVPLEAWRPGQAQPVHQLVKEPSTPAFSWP
Procedure: as §2

[9] = biological target: T7, CD19 (Sino Biological Inc.) (UniProt P15391 20-291); assay: as above
T7 construct: Specificity control
T7 sequence (looked up): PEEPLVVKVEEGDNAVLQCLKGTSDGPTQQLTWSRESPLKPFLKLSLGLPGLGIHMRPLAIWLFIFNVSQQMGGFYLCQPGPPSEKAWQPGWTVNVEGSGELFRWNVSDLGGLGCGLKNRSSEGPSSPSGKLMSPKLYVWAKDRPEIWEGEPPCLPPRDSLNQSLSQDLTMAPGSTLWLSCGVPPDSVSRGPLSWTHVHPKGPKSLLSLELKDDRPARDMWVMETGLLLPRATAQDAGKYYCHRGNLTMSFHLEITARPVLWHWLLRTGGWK
Procedure: as §2

Gas6 (R&D) = biological target: T8, Gas6 (R&D) (UniProt Q14393 49-678, limits assumed); assay: as above
T8 construct: Specificity control
T8 sequence (looked up): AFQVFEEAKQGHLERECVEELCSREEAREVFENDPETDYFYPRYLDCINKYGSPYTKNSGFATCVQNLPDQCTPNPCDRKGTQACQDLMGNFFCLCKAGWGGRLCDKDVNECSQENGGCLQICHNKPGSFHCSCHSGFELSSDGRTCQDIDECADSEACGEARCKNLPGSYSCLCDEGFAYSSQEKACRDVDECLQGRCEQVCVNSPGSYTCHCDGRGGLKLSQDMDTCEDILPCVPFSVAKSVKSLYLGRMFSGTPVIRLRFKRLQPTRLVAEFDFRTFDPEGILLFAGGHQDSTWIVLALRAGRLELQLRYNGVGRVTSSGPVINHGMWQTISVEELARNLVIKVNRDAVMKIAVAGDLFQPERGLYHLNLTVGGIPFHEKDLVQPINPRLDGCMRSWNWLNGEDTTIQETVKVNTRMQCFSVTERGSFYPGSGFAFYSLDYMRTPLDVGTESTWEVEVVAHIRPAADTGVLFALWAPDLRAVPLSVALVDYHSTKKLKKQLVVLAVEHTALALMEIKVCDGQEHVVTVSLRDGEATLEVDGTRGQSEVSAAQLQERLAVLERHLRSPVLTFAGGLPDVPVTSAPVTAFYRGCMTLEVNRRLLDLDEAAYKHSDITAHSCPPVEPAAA
Procedure: as §2

BSA (BOVOGEN) = biological target: T9, BSA (BOVOGEN) (UniProt P02769 25-607); assay: as above
T9 construct: Specificity control
T9 sequence (P02769 25-607 limits assumed): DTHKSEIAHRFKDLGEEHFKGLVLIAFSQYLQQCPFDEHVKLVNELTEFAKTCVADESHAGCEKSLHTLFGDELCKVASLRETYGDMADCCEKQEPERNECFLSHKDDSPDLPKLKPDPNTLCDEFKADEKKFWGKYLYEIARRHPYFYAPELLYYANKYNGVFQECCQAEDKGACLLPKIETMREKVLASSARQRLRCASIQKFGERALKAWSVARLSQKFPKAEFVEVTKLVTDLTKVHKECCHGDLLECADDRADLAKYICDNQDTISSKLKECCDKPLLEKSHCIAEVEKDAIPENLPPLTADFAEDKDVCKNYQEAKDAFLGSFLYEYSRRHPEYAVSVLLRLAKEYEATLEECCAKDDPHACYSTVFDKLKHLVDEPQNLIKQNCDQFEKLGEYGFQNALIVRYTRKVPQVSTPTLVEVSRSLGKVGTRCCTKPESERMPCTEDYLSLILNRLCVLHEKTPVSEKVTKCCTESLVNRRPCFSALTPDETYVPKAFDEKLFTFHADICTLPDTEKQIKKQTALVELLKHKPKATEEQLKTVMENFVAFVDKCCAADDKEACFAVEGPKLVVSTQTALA
Procedure: as §2

[10] = biological target: T10, TROP2 (Sino Biological Inc.) (UniProt P09758 27-274); assay: as above
T10 construct: Specificity control
T10 sequence (looked up): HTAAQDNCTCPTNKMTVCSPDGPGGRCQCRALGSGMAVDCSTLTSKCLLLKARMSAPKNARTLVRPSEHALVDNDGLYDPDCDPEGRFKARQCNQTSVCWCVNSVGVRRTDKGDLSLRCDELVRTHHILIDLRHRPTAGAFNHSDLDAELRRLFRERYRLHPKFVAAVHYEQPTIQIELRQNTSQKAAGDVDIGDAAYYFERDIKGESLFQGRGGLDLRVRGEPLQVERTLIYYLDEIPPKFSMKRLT
Procedure: as §2

- internalization efficiency EC50 (flow cytometry, surface MFI at 4°C against 37°C) [1]: 0.178 µg/mL
- internalization efficiency EC50 (flow cytometry, surface MFI at 4°C against 37°C) [2]: 0.00327 µg/mL
- Kd [3]: 1.39 nM
- koff [3]: 0.0171 s⁻¹
- kon [3]: 1.23e+07 M⁻¹ s⁻¹
- EC50 [4]: 0.0565 µg/mL
- EC50 [5]: 4.29 µg/mL
- EC50 [6]: 0.622 µg/mL
- binding result [7]: no binding
- binding result [8]: no binding
- binding result (AXL (ACRO Biosystems)): no binding
- binding result [9]: no binding
- binding result (Gas6 (R&D)): no binding
- binding result (BSA (BOVOGEN)): no binding
- binding result [10]: no binding
B1: SG1116 antibody (antibody, human IgG1, V domains shown)
VH: QVQLVQSGPELKKPGETVKISCKASGYTFSRYSMNWVRQAPGKGLEWMGRINTGSGAPIYADDFKGRFTFSVDTSASTAYLVINNLKSEDTASYFCSNDYNYSLDHWGQGTAVTVSS
VL: DIVLTQSPPSLAMSLGKRATISCRASESVTILGSHLIYWYQQKPGQPPTLLIQLASNVQTGVPARFSGSGSRTDFTLTIDPVEEDDVAVYYCLQSRTIPRTFGGGTKLEIK
notes: also called antibody SG1116; SGT116

- IC50 of inhibition of proliferation (CCK-8, 72 hours) [1]: 0.347 nM
B2: immunoconjugate SG1116-DM1 (antibody, V domains shown)
VH: B1 VH
VL: B1 VL
modifications: maytansine derivative DM1 linked through SMCC; conjugation residues and chain not stated
